Self-cleavage data for 167 variants are collected here from the RNAGym collection of RNA variant scans (doi:10.7554/elife.80360).

To fix the notation:
B1: HDV Ribozyme (parent)
chain: GGCCGGCAUGGUCCCAGCCUCCUCGCUGGCGCCGGCUGGGCAACAUUCCGAGGGGACCGUCCCCUCGGUAAUGGCGAAUGGGACCCA

The series covers variants of B1. The series is described as follows: self-cleavage, relative activity (ratio to wild type); higher = more cleavage; co-transcriptional.
As to C3A G52C, the self-cleavage came out at 0.676. As for C3U A70G, the figure is 0.973. In the case of C3U A70U it was 0.678. In the case of C4A C32A it was 0.0332; in that of C3G G35C, 1.48. With C3U A56U, the self-cleavage amounted to 0.861. C3G C7U: the self-cleavage stood at 0.226. As for C3G C7G, the figure is 0.0244. In the case of C3A G5C it was 0.0339. As for C3A A51U, the figure is 0.599; as for C3U C4A, 0.0817; as for G2U C62U, 0.0314. C3A G39C: the self-cleavage was 0.0196.

Take G2U G6U: the self-cleavage worked out at 0.0621. As for C3A G25A, the figure is 0.0658; as for C4A C13A, 0.0282. In the case of C3U G54U it was 0.732; in that of C3A U27G, 0.322.

Turning to C3A U27A, the self-cleavage amounted to 0.306. As for C4A G10A, the figure is 0.0554; as for C4A G10C, 0.141. In the case of C4G C61G it was 0.325; in that of C4G C61A, 0.35; in that of C3A U37A, 0.122. As for C3U A87C, the figure is 0.759. C3G U27G: the self-cleavage turned out to be 0.479.

Turning to C4A C24G, the self-cleavage stood at 0.0573. As for C3A G68A, the figure is 0.408; as for C3G G67U, 0.626. As for C3G U65C, the figure is 0.817; as for C3A C26A, 0.795; as for C3G A78C, 0.134. As for C3A U9G, the figure is 0.985; as for C3U A51C, 0.831; as for C3U A51U, 0.992. For the variant C4G C33U, the self-cleavage stood at 0.123. In the case of G2U C48A it was 0.0378; in that of C3U G28U, 0.0707.

Regarding G2U C57G, the self-cleavage turned out to be 0.109. In the case of C3G G59C it was 0.903. In the case of C4A U79C it was 0; in that of C4A U79G, 0; in that of G2U U69A, 0.0222. In the case of G2U U69G it was 0.0475; in that of C3U C64A, 0.518. Consider C3A C44A, for which the self-cleavage was found to be 0.103.

For C3A C44G, the self-cleavage stood at 0.0615. As for G2U C75U, the figure is 0.021; as for C3A G82A, 0.0811. As for C3A C18G, the figure is 0; as for C3A C64A, 0.564. In the case of C4A C85G it was 0.393; in that of G2U U79C, 0.0434.

As for C4G G11U, the self-cleavage worked out at 0.0767. In the case of C3U G73U it was 0.257.

With C3U G73A, the self-cleavage is 0.366. As for C3U G74A, the figure is 0.245; as for G2U G54U, 0.0589.

Regarding C4A A45G, the self-cleavage is 0.138. As for C4A A45C, the figure is 0.0519; as for C3U U37C, 1.08; as for G2U G81C, 0.0779. In the case of C4A G52C it was 0.406.

As for C4A G52U, the self-cleavage is 0.213. Regarding C3A C32A, the self-cleavage is 0.0545. In the case of C4A C63G it was 0.0755; in that of C4G C86U, 0.44. For C4A U46C, the self-cleavage was determined as 0.111. As for C4A U46A, the figure is 0.151; as for C4A U46G, 0.0615. As for C3A G73A, the figure is 0.152; as for C3A G73C, 0.0755. In the case of C3G U69G it was 0.658; in that of C4A A78C, 0.0308. Take C3G C62U: the self-cleavage is 0.822. As for C4A U47G, the figure is 0.201; as for C3U G5C, 0.0123.

Regarding C3U G5U, the self-cleavage was 0.107. As for G2U G53U, the figure is 0.0256.

On to C3G G81A, for which the self-cleavage stood at 0.201. In the case of C3G G81U it was 0.185; in that of C3G G81C, 0.0831.

For the variant C3U C7U, the self-cleavage was determined as 0.529. In the case of C4A C21G it was 0; in that of C4A G59U, 0.415; in that of G2U C30A, 0.0396. In the case of C4G G6C it was 0.214. In the case of C4A G40C it was 0.0511; in that of G2U G28A, 0.0164.

Regarding C3U C22U, the self-cleavage is 0.525. In the case of G2U C21U it was 0.0542; in that of G2U C21A, 0.0437; in that of C3U U69C, 0.616. Regarding G2U C36A, the self-cleavage stood at 0.366. G2U C36U: the self-cleavage came out at 0.0308.

In the case of C3A G28C, the self-cleavage was 0.0275. As for C4A U9G, the figure is 0.383.

As to C4A U9A, the self-cleavage was 0.323. As for G2U G35C, the figure is 0.016; as for G2U C85G, 0.0966; as for C3G G28C, 0.107.

For C4A C33G, the self-cleavage turned out to be 0. As for C4A A51G, the figure is 0.502; as for C4A A51U, 0.145. On to C3U A45C, for which the self-cleavage came to 0.43. For C3U A45G, the self-cleavage turned out to be 0.607. Turning to C4G C84A, the self-cleavage is 0.225. On to C4A G11A, for which the self-cleavage was 0.0183. For C4A G11C, the self-cleavage amounted to 0.0604. With C3A C36G, the self-cleavage came out at 0.0608.

Regarding C3A G35C, the self-cleavage worked out at 0.604. In the case of C3A C61A it was 0.596; in that of C3A G80C, 0.111; in that of C3U C62G, 0.415.

On to C4G C58A, for which the self-cleavage was found to be 0.429.

G2U U20A: the self-cleavage stood at 0.0563.

Take G2U U20C: the self-cleavage came out at 0.

For C3U G50C, the self-cleavage worked out at 0.686. As for C3G A42C, the figure is 0.128. Turning to C3U G6A, the self-cleavage was determined as 0.245. As for C3U G6U, the figure is 0.0934. As for C3A G29A, the figure is 0.012; as for G2U U9A, 0.0237; as for C4A C19U, 0.0203. For C3G G55C, the self-cleavage was 0.682. As for C4G C64G, the figure is 0.259. In the case of C3A G81U it was 0.107; in that of C3U C58U, 0.696; in that of G2U G29U, 0.0712. As for C3G A56C, the self-cleavage came out at 0.681.

Consider C3G A56G, for which the self-cleavage was found to be 0.692. As for C4A C36U, the figure is 0. As for C4G C44U, the figure is 0.141; as for C3G C41A, 0.217. Turning to C3G C41U, the self-cleavage came to 0.547. As for C3U G55U, the figure is 0.805. In the case of C3U G55C it was 0.867. In the case of C3U A8C it was 0.269. As to C3A G59U, the self-cleavage is 0.755. As for C3A C75G, the figure is 0.0308; as for C3A A42C, 0.162; as for C4A G38U, 0.0449. As for C4G C30U, the figure is 0.0615. As for C4A A43G, the figure is 0.158; as for C4A A43U, 0.0707.

As to C3U A16U, the self-cleavage came to 0.831. On to C4A C49G, for which the self-cleavage amounted to 0.302. In the case of C3G G74U it was 0.189; in that of C3G G74C, 0.0779; in that of C4A U69A, 0.185. For G2U C84G, the self-cleavage is 0.0213.

As to C3U A78U, the self-cleavage was 0.117. Take C3U A78G: the self-cleavage was found to be 0.446. In the case of C4G G10C it was 0.237; in that of C4G G10U, 0.0779; in that of C4A A87C, 0.21.

For the variant C4A A87G, the self-cleavage came to 0.233. Regarding C4A A87U, the self-cleavage came out at 0.39. In the case of C4A C18U it was 0.119.

Consider C3A C62A, for which the self-cleavage came to 0.511. As for C3A U23A, the figure is 0.475; as for C4A G6A, 0.0573; as for C4A G6U, 0.0791.

As for C3A U46C, the self-cleavage is 0.173. In the case of C4A C22G it was 0.102. As for C4A C22U, the figure is 0.148. In the case of C3A A83C it was 0.177.
